Source: US20220152100A1, “METHODS FOR CONTROLLED ACTIVATION OR ELIMINATION OF THERAPEUTIC CELLS” (Bellicum Pharmaceuticals, Inc., priority 2014, published 2022)

System: HEK293T/16 cells
Assay: SEAP-based surrogate killing assay of iCasp9 mutants
Type: cell-based, human
Conditions: in words, versus wild type
Protocol: Early passage HEK293T/16 cells (ATCC, Manassas, Va.) were maintained in IMDM, GlutaMAX™ (Life Technologies, Carlsbad, Calif.) supplemented with 10% FBS, 100 U/mL penicillin, and 100 […] until transfection in a humidified, 37° C., 5% CO2/95% air atmosphere. Cells in logarithmic-phase growth were transiently transfected with 800 ng to 2 μg of expression plasmid encoding iCasp9 mutants and 500 ng of an expression plasmid encoding SRα promoter driven SEAP per million cells in 15-mL conical tubes. […] GeneJammer® Transfection Reagent at a ratio of 3 μl per ug of plasmid DNA was used to transiently transfect HEK293T/16 cells in the absence of antibiotics. 100 μl or 2 mL of the transfection mixture was added to each well in 96-well or 6-well plate, respectively.
Briefly, after 65° C. heat denaturation for 45 minutes to reduce background caused by endogenous (and serum-derived) alkaline phosphatases that are sensitive to heat, 5 μl of supernatants was added to 95 μl of PBS and added to 100 μl of substrate buffer, containing 1 μl of 100 mM 4-methylumbelliferyl phosphate (4-MUP; Sigma, St. Louis, Mo.) re-suspended in 2 M diethanolamine. Hydrolysis of 4-MUP by SEAP produces a fluorescent […] with excitation/emission (355/460 nm), which can be easily measured. Assays were performed in black opaque 96-well plates to minimize fluorescence leakage between wells. […] of the mixture was seeded onto each well of a 96-well plate. […] For the assay, 4-methylumbelliferyl phosphate substrate was hydrolyzed by SEAP to 4-methylumbelliferon, a metabolite that can be excited with 364 nm and detected with an emission filter of 448 nm. Since SEAP is used as a marker for cell viability, reduced SEAP reading corresponds with increased iCaspase-9 activities.

B1: D327G: chimeric modified Caspase-9 polypeptide (protein)
chain: VDGFGDVGALESLRGNADLAYILSMEPCGHCLIINNVNFCRESGLRTRTGSNIDCEKLRRRFSSLHFMVEVKGDLTAKKMVLALLELARQDHGALDCCVVVILSHGCQASHLQFPGAVYGTDGCPVSVEKIVNIFNGTSCPSLGGKPKLFFIQACGGEQKDHGFEVASTSPEDESPGSNPEPDATPFQEGLRTFGQLDAISSLPTPSDIFVSYSTFPGFVSWRDPKSGSWYVETLDDIFEQWAHSEDLQSLLLRVANAVSVKGIYKQMPGCFNFLRKKLFFKTSASRA
  effect on basal / catalytic activity: did not lower basal activity

B2: T317A: chimeric modified Caspase-9 polypeptide (protein)
chain: VDGFGDVGALESLRGNADLAYILSMEPCGHCLIINNVNFCRESGLRTRTGSNIDCEKLRRRFSSLHFMVEVKGDLTAKKMVLALLELARQDHGALDCCVVVILSHGCQASHLQFPGAVYGTDGCPVSVEKIVNIFNGTSCPSLGGKPKLFFIQACGGEQKDHGFEVASTSPEDESPGSNPEPDAAPFQEGLRTFDQLDAISSLPTPSDIFVSYSTFPGFVSWRDPKSGSWYVETLDDIFEQWAHSEDLQSLLLRVANAVSVKGIYKQMPGCFNFLRKKLFFKTSASRA
  effect on basal / catalytic activity: can reduce basal activity without a large shift in the IC50

B3: Q328K: chimeric modified Caspase-9 polypeptide (protein)
chain: VDGFGDVGALESLRGNADLAYILSMEPCGHCLIINNVNFCRESGLRTRTGSNIDCEKLRRRFSSLHFMVEVKGDLTAKKMVLALLELARQDHGALDCCVVVILSHGCQASHLQFPGAVYGTDGCPVSVEKIVNIFNGTSCPSLGGKPKLFFIQACGGEQKDHGFEVASTSPEDESPGSNPEPDATPFQEGLRTFDKLDAISSLPTPSDIFVSYSTFPGFVSWRDPKSGSWYVETLDDIFEQWAHSEDLQSLLLRVANAVSVKGIYKQMPGCFNFLRKKLFFKTSASRA
  effect on basal / catalytic activity: did not lower basal activity

B4: Q328R: chimeric modified Caspase-9 polypeptide (protein)
chain: VDGFGDVGALESLRGNADLAYILSMEPCGHCLIINNVNFCRESGLRTRTGSNIDCEKLRRRFSSLHFMVEVKGDLTAKKMVLALLELARQDHGALDCCVVVILSHGCQASHLQFPGAVYGTDGCPVSVEKIVNIFNGTSCPSLGGKPKLFFIQACGGEQKDHGFEVASTSPEDESPGSNPEPDATPFQEGLRTFDRLDAISSLPTPSDIFVSYSTFPGFVSWRDPKSGSWYVETLDDIFEQWAHSEDLQSLLLRVANAVSVKGIYKQMPGCFNFLRKKLFFKTSASRA
  effect on basal / catalytic activity: did not lower basal activity

B5: D327R: chimeric modified Caspase-9 polypeptide (protein)
chain: VDGFGDVGALESLRGNADLAYILSMEPCGHCLIINNVNFCRESGLRTRTGSNIDCEKLRRRFSSLHFMVEVKGDLTAKKMVLALLELARQDHGALDCCVVVILSHGCQASHLQFPGAVYGTDGCPVSVEKIVNIFNGTSCPSLGGKPKLFFIQACGGEQKDHGFEVASTSPEDESPGSNPEPDATPFQEGLRTFRQLDAISSLPTPSDIFVSYSTFPGFVSWRDPKSGSWYVETLDDIFEQWAHSEDLQSLLLRVANAVSVKGIYKQMPGCFNFLRKKLFFKTSASRA
  effect on basal / catalytic activity: did not lower basal activity

B6: F326K: chimeric modified Caspase-9 polypeptide (protein)
chain: VDGFGDVGALESLRGNADLAYILSMEPCGHCLIINNVNFCRESGLRTRTGSNIDCEKLRRRFSSLHFMVEVKGDLTAKKMVLALLELARQDHGALDCCVVVILSHGCQASHLQFPGAVYGTDGCPVSVEKIVNIFNGTSCPSLGGKPKLFFIQACGGEQKDHGFEVASTSPEDESPGSNPEPDATPFQEGLRTKDQLDAISSLPTPSDIFVSYSTFPGFVSWRDPKSGSWYVETLDDIFEQWAHSEDLQSLLLRVANAVSVKGIYKQMPGCFNFLRKKLFFKTSASRA
  effect on basal / catalytic activity: did not lower basal activity

B7: D330N: chimeric modified Caspase-9 polypeptide (protein)
chain: VDGFGDVGALESLRGNADLAYILSMEPCGHCLIINNVNFCRESGLRTRTGSNIDCEKLRRRFSSLHFMVEVKGDLTAKKMVLALLELARQDHGALDCCVVVILSHGCQASHLQFPGAVYGTDGCPVSVEKIVNIFNGTSCPSLGGKPKLFFIQACGGEQKDHGFEVASTSPEDESPGSNPEPDATPFQEGLRTFDQLNAISSLPTPSDIFVSYSTFPGFVSWRDPKSGSWYVETLDDIFEQWAHSEDLQSLLLRVANAVSVKGIYKQMPGCFNFLRKKLFFKTSASRA
  effect on basal / catalytic activity: less basal activity than wild type Caspase-9

B8: A331K: chimeric modified Caspase-9 polypeptide (protein)
chain: VDGFGDVGALESLRGNADLAYILSMEPCGHCLIINNVNFCRESGLRTRTGSNIDCEKLRRRFSSLHFMVEVKGDLTAKKMVLALLELARQDHGALDCCVVVILSHGCQASHLQFPGAVYGTDGCPVSVEKIVNIFNGTSCPSLGGKPKLFFIQACGGEQKDHGFEVASTSPEDESPGSNPEPDATPFQEGLRTFDQLDKISSLPTPSDIFVSYSTFPGFVSWRDPKSGSWYVETLDDIFEQWAHSEDLQSLLLRVANAVSVKGIYKQMPGCFNFLRKKLFFKTSASRA
  effect on basal / catalytic activity: did not lower basal activity

B9: D327K: chimeric modified Caspase-9 polypeptide (protein)
chain: VDGFGDVGALESLRGNADLAYILSMEPCGHCLIINNVNFCRESGLRTRTGSNIDCEKLRRRFSSLHFMVEVKGDLTAKKMVLALLELARQDHGALDCCVVVILSHGCQASHLQFPGAVYGTDGCPVSVEKIVNIFNGTSCPSLGGKPKLFFIQACGGEQKDHGFEVASTSPEDESPGSNPEPDATPFQEGLRTFKQLDAISSLPTPSDIFVSYSTFPGFVSWRDPKSGSWYVETLDDIFEQWAHSEDLQSLLLRVANAVSVKGIYKQMPGCFNFLRKKLFFKTSASRA
  effect on basal / catalytic activity: did not lower basal activity

B10: L329K: chimeric modified Caspase-9 polypeptide (protein)
chain: VDGFGDVGALESLRGNADLAYILSMEPCGHCLIINNVNFCRESGLRTRTGSNIDCEKLRRRFSSLHFMVEVKGDLTAKKMVLALLELARQDHGALDCCVVVILSHGCQASHLQFPGAVYGTDGCPVSVEKIVNIFNGTSCPSLGGKPKLFFIQACGGEQKDHGFEVASTSPEDESPGSNPEPDATPFQEGLRTFDQKDAISSLPTPSDIFVSYSTFPGFVSWRDPKSGSWYVETLDDIFEQWAHSEDLQSLLLRVANAVSVKGIYKQMPGCFNFLRKKLFFKTSASRA
  effect on basal / catalytic activity: did not lower basal activity

B11: T317C: chimeric modified Caspase-9 polypeptide (protein)
chain: VDGFGDVGALESLRGNADLAYILSMEPCGHCLIINNVNFCRESGLRTRTGSNIDCEKLRRRFSSLHFMVEVKGDLTAKKMVLALLELARQDHGALDCCVVVILSHGCQASHLQFPGAVYGTDGCPVSVEKIVNIFNGTSCPSLGGKPKLFFIQACGGEQKDHGFEVASTSPEDESPGSNPEPDACPFQEGLRTFDQLDAISSLPTPSDIFVSYSTFPGFVSWRDPKSGSWYVETLDDIFEQWAHSEDLQSLLLRVANAVSVKGIYKQMPGCFNFLRKKLFFKTSASRA
  effect on basal / catalytic activity: no effect

B12: L329G: chimeric modified Caspase-9 polypeptide (protein)
chain: VDGFGDVGALESLRGNADLAYILSMEPCGHCLIINNVNFCRESGLRTRTGSNIDCEKLRRRFSSLHFMVEVKGDLTAKKMVLALLELARQDHGALDCCVVVILSHGCQASHLQFPGAVYGTDGCPVSVEKIVNIFNGTSCPSLGGKPKLFFIQACGGEQKDHGFEVASTSPEDESPGSNPEPDATPFQEGLRTFDQGDAISSLPTPSDIFVSYSTFPGFVSWRDPKSGSWYVETLDDIFEQWAHSEDLQSLLLRVANAVSVKGIYKQMPGCFNFLRKKLFFKTSASRA
  effect on basal / catalytic activity: did not lower basal activity

B13: ^316ATPF^319AVPI: Caspase-9 with XIAP-binding tetrapeptide ATPF replaced by AVPI from SMAC/DIABLO (protein, UniProt P55211 1-416, looked up, variant T317V F319I)
chain: MDEADRRLLRRCRLRLVEELQVDQLWDALLSRELFRPHMIEDIQRAGSGSRRDQARQLIIDLETRGSQALPLFISCLEDTGQDMLASFLRTNRQAAKLSKPTLENLTPVVLRPEIRKPEVLRPETPRPVDIGSGGFGDVGALESLRGNADLAYILSMEPCGHCLIINNVNFCRESGLRTRTGSNIDCEKLRRRFSSLHFMVEVKGDLTAKKMVLALLELAQQDHGALDCCVVVILSHGCQASHLQFPGAVYGTDGCPVSVEKIVNIFNGTSCPSLGGKPKLFFIQACGGEQKDHGFEVASTSPEDESPGSNPEPDAVPIQEGLRTFDQLDAISSLPTPSDIFVSYSTFPGFVSWRDPKSGSWYVETLDDIFEQWAHSEDLQSLLLRVANAVSVKGIYKQMPGCFNFLRKKLFFKTS
modifications: ATPF replaced by SMAC AVPI motif
  effect on basal / catalytic activity: no effect
